Source: US20240101668A1 (WUGEN, published 2024)

Key:
[1] = target: T1, huCD33-G69-Fc recombinant protein (human, UniProt P20138 18-259); assay: BLI;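 further: scFvs from periplasmic extracts captured on biosensors via anti-V5 antibody, exposed to recombinant huCD33 variants for 2 min, 5 min dissociation, scored as binding, no binding or ambiguous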
T1 construct: extracellular domain; also called CD33 R69G
Description: (§1) Discovered scFvs were analyzed for binding to huCD33-R69-His or huCD33-G69-Fc recombinant proteins (for anti-CD33 scFvs; for CLL-1 scFvs, huCLL1-K244-Avi-Tev-His or huCLL1-Q244-Avi-Tev-His were used; for FLT3, huFLT3-T227-His or huFLT3-M227-Fc were used) using BLI on a ForteBio Octet HTX instrument. Streptavidin-coated biosensors were loaded with biotinylated anti-V5 tag monoclonal antibody for 5 min and were then quenched and blocked with 20 μM amine-PEG2-Biotin for 5 min. scFvs were captured on biosensors from scFv clone periplasmic extracts. huCD33 (or huCLL-1, or huFLT3) proteins were then associated with the captured scFvs for 2 minutes, followed by dissociation with buffer (1×HBST [10 mM HEPES pH 7.4, 150 mM NaCl, 0.05% Tween-20], 1 g/L BSA) for 5 minutes. […] Data was fitted with 1:1 Langmuir equation and off-rate values were reported.

[2] = target: T2, huCD33-G69 stably expressed on Jurkat cells (human, UniProt P20138 18-364); assay: FACS on cells;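 further: fixed Jurkat cells bearing either CD33 variant, barcoded by dye, exposed to myc-tagged scFv periplasmic extracts, detected with anti-myc PE antibody and read by flow cytometry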
T2 construct: whole, on cells; >200,000 receptors per cell; also called CD33 Mutant; CD33 R69G
Description: (§2) Jurkat cells were engineered to stably express either the huCD33-R69 or huCD33-G69 variant at >200,000 receptors per cell. Parental, huCD33-R69, and huCD33-G69 Jurkat cell lines were stained with differing levels of CellTrace Violet Cell Proliferation Kit (ThermoFisher, cat. #C34557) to barcode each cell line. Barcoded Jurkat cell lines were fixed with paraformaldehyde and incubated with myc-labeled scFv periplasmic extracts and a secondary anti-myc PE-conjugated monoclonal antibody. Appropriate positive and negative controls were used. Stained cells were analyzed by flow cytometry (CytoFLEX, Beckman Coulter, Inc.) and binding was assessed by change in PE mean fluorescence intensity (MFI) of the barcoded cell populations.

[3] = target: T3, huCD33-R69 stably expressed on Jurkat cells (human, UniProt P20138 18-364); assay: FACS on cells;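 further: fixed Jurkat cells bearing either CD33 variant, barcoded by dye, exposed to myc-tagged scFv periplasmic extracts, detected with anti-myc PE antibody and read by flow cytometry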
T3 construct: whole, on cells; >200,000 receptors per cell; also called CD33 WT; CD33^ARG69
Description: as §2

[4] = target: T4, huFLT3-T227 stably expressed on Ramos cells (human, UniProt P36888 27-993); assay: FACS on cells
T4 construct: whole, on cells; also called FLT3 WT

huFLT3-T227-His = target: T5, huFLT3-T227-His (human, UniProt P36888 27-543); assay: BLI;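 further: octet BLI with scFvs from periplasmic extracts captured by anti-V5 antibody on streptavidin sensors, FLT3 protein associating 2 min then dissociating 5 min, 1:1 Langmuir fit for off-rate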
T5 construct: extracellular domain; also called FLT3 WT
Description: as §1

[5] = target: T6, huFLT3-M227 stably expressed on Ramos cells (human, UniProt P36888 27-993); assay: FACS on cells
T6 construct: whole, on cells; also called FLT3 Mutant

T2 sequence (P20138 18-364 R69G): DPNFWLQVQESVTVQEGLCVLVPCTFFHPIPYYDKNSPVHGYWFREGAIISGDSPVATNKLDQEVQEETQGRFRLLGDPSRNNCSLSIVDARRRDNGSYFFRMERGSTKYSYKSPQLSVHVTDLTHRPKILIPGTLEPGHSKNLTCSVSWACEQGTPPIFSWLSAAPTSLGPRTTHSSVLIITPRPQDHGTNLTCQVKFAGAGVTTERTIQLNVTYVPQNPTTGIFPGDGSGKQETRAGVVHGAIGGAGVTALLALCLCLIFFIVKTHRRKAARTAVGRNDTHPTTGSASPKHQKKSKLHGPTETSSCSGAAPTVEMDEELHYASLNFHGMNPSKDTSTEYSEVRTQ
T1 sequence (P20138 18-259 R69G): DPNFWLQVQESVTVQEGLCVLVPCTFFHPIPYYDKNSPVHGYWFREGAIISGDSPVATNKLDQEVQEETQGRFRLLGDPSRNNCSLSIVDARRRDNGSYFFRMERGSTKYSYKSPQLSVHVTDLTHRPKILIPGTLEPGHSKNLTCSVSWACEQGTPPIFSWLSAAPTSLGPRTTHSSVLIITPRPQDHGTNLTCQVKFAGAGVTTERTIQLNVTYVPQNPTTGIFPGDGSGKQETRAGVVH
T3 sequence (P20138 18-364): as the sequence (P20138 18-364 R69G) above, with G52R counted along it

binding result [1] | geometric mean MFI fold change over Jurkat parental [2] | geometric mean MFI fold change over Jurkat parental [3] | FACS geometric mean fold change over Jurkat parental [4] | binding result (huFLT3-T227-His) | FACS geometric mean fold change over Jurkat parental [5] | Binder
no binding | < 2 fold | 2 to 10 fold | – | – | – | Polypeptide No. 15 (scFv, V domains shown, scFv) VH: EVQLLESGGGLVQPGGSLRLSCAASGFTFSIYEIHWVRQAPGKGLEWVSAISGSGGSTYYADSVKGRFTISRDNSKNTLYLQMNSLRAEDTAVYYCARSYCGGDCWDYYYYYGMDVWGQGTTVTVSS VL: not shown
– | – | – | < 2 fold | no binding | – | Polypeptide No. 203 (scFv, V domains shown, scFv) VH: QVQLVQSGAEVKKPGSSVKVSCKASGYTLTELSMHWVRQAPGQGLEWMGRIIPISGTANYAQKFQGRVTITADESTSTAYMELSSLRSEDTAVYYCARAARYCSSTSCYWRDGMDVWGQGTTVTVSS VL: not shown
no binding | < 2 fold | 2 to 10 fold | – | – | – | Polypeptide No. 10 (scFv, V domains shown, scFv) VH: QVQLVQSGAEVKKPGASVKVSCKASGDTFTTYAISWVRQAPGQGLEWMGWINPNSGVATYANKFQGRVTMTRDTSTSTVYMELSSLRSEDTAVYYCAREGIVGATDAFDIWGQGTMVTVSS VL: not shown
no binding | < 2 fold | 10 to 30 fold | – | – | – | Polypeptide No. 13 (scFv, V domains shown, scFv) VH: QVQLVQSGAEVKKPGASVKVSCKASGYSFTGYYMHWVRQAPGQGLEWMGWINPNSGGTYFAQNFQGRVTMTRDTSTSTVYMELSSLRSEDTAVYYCVKDRGDRVVTSYLDYWGQGTLVTVSS VL: DIQMTQSPSSLSASVGDRVTITCRASQGIRNWLAWYQQKPGKAPKLLIYAASSLQSGVPSRFSGSGSGTDFTLTISSLQPEDFATYYCQQSYRTPYTFGQGTKLEIKR
no binding | < 2 fold | > 30 fold | – | – | – | Polypeptide No. 25 (scFv, V domains shown, scFv) VH: QVQLVQSGAEVKKPGASVKVSCKASGYTFTGYYMHWVRQAPGQGLEWMGRINPNGGSTTYAQKFQGRVTMTRDTSTSTVYMELSSLRSEDTAVYYCARDDFYYYYLDFWGKGTTVTVSS VL: DIQMTQSPSSLSASVGDRVTITCRASQSINDWLAWYQQKPGKAPKLLIYAASNLQSGVPSRFSGSGSGTDFTLTISSLQPEDFATYYCQQGYSTPPTFGQGTKVEIKR
no binding | < 2 fold | 2 to 10 fold | – | – | – | Polypeptide No. 22 (scFv, V domains shown, scFv) VH: QVQLVQSGAEVKKPGASVKVSCKASGYTFTDYYIHWVRQAPGQGLEWMGWINPNSGGTNYAQEFQGRVTMTRDTSTSTVYMELSSLRSEDTAVYYCARDHRIAVAGSYFDYWGQGTLVTVSS VL: DIQMTQSPSSLSASVGDRVTITCRASRSIRTWLAWYQQKPGKAPKLLIYAASSLQTGVPSRFSGSGSGTDFTLTISSLQPEDFATYYCQQSYSTPYTFGQGTKLEIKR
no binding | < 2 fold | > 30 fold | – | – | – | Polypeptide No. 1 (scFv, V domains shown, scFv) VH: QVQLVQSGAEVKKPGASVKVSCKASGYSFTGYYIHWVRQAPGQGLEWMGWINPNSGGTNYAQKFQGRVTMTRDTSTSTVYMELSSLRSEDTAVYYCARDQWDGYNSGYFDYWGQGTLVTVSS VL: DIQMTQSPSSLSASVGDRVTITCRASQTINDWLAWYQQKPGKAPKLLIYSASTLHSGVPSRFSGSGSGTDFTLTISSLQPEDFATYYCQQAYSTPWTFGQGTKVEIKR
no binding | < 2 fold | 2 to 10 fold | – | – | – | Polypeptide No. 18 (scFv, V domains shown, scFv) VH: QVQLVQSGAEVKKPGASVKVSCKASGYTFTDHYMHWVRQAPGQGLEWMGWINPNSGGTNYAQKFQGRVTMTRDTSTSTVYMELSSLRSEDTAVYYCAKDKFGDEGSGWYGDFQHWGQGTLVTVSS VL: not shown
– | – | – | < 2 fold | no binding | 2 to 10 fold | Polypeptide No. 202 (scFv, V domains shown, scFv) VH: QVQLVQSGAEVKKPGASVKVSCKASGYTFTNYYMHWVRQAPGQGLEWMGVINPSGGSTNYAQKFQGRVTMTRDTSTSTVYMELSSLRSEDTAVYYCARAGVGAFHIWGQGTMVTVSS VL: DIQMTQSPSSLSASVGDRVTITCRASQSIRSWLAWYQQKPGKAPKLLIYDASNLETGVPSRFSGSGSGTDFTLTISSLQPEDFATYYCQQIYSLPRTFGQGTKVEIKR
no binding | < 2 fold | > 30 fold | – | – | – | Polypeptide No. 14 (scFv, V domains shown, scFv) VH: QVQLVQSGAEVKKPGASVKVSCKASGYTFTGYYMHWVRQAPGQGLEWMGIINPSGGSTSYAQKFQGRVTMTRDTSTSTVYMELSSLRSEDTAVYYCARAAPYYYDSSGYYSGGYYFDYWGQGTLVTVSS VL: not shown
no binding | < 2 fold | > 30 fold | – | – | – | Polypeptide No. 19 (scFv, V domains shown, scFv) VH: EVQLLESGGGLVQPGGSLRLSCAASGFTFSSYWMHWVRQAPGKGLEWVSGFSGSARTYYADSVKGRFTISRDNSKNTLYLQMNSLRAEDTAVYYCAREWSGFDYWGQGTLVTVSS VL: DIQMTQSPSSLSASVGDRVTITCRASQNIGPWLAWYQQKPGKAPKLLIYDAKDLHPGVPSRFSGSGSGTDFTLTISSLQPEDFATYYCQQANTFPMTFGQGTRLEIKR
no binding | < 2 fold | 2 to 10 fold | – | – | – | Polypeptide No. 9 (scFv, V domains shown, scFv) VH: QVQLVQSGAEVKKPGSSVKVSCKASGGTFSSDAINWVRQAPGQGLEWMGGFDPEDGETIYAQKFQGRVTITADESTSTAYMELSSLRSEDTAVYYCARGPSGYDFEFDYWGQGTLVTVSS VL: DIQMTQSPSSLSASVGDRVTITCRSSRNISHWLAWYQQKPGKAPKLLIYKASSLESGVPSRFSGSGSGTDFTLTISSLQPEDFATYYCQQAISFPLTFGGGTKVEIKR
no binding | < 2 fold | 2 to 10 fold | – | – | – | Polypeptide No. 11 (scFv, V domains shown, scFv) VH: QVQLVQSGAEVKKPGASVKVSCKASGDTFTNHYMHWVRQAPGQGLEWMGWINPNSGGTNYAQKFQGRVTMTRDTSTSTVYMELSSLRSEDTAVYYCARDLVPAAVGGYFDYWGQGTLVTVSS VL: DIQMTQSPSSLSASVGDRVTITCRASQSLGSWLAWYQQKPGKAPKLLIYAASSLQSGVPSRFSGSGSGTDFTLTISSLQPEDFATYYCQQANSFPLTFGQGTKVEIKR
no binding | < 2 fold | 2 to 10 fold | – | – | – | Polypeptide No. 16 (scFv, V domains shown, scFv) VH: EVQLVESGGGLVKPGGSLRLSCAASGFTFSDNSMNWVRQAPGKGLEWVSYISSSGSTIYYADSVKGRFTISRDDSKNTLYLQMNSLKTEDTAVYYCARGRASSWPNWFDPWGQGTLVTVSS VL: DIVMTQSPLSLPVTPGEPASISCRSSQSLLHSNGYNYLDWYLQKPGQSPQLLIYSASNLQSGVPDRFSGSGSGTDFTLKISRVEAEDVGVYYCMQALQTPPTFGQGTKLEIKR
– | – | – | < 2 fold | no binding | 2 to 10 fold | Polypeptide No. 221 (scFv, V domains shown, scFv) VH: QVQLVQSGAEVKKPGASVKVSCKASGYTFTDNYMHWVRQAPGQGLEWMGWMTPDSNNTGFAQNFQGRVTMTRDTSTSTVYMELSSLRSEDTAVYYCALGDGPFGMDVWGQGTTVTVSS VL: DIVMTQSPLSLPVTPGEPASISCRSSQSLLHSNGYNYLDWYLQKPGQSPQLLIYGASYLQSGVPDRFSGSGSGTDFTLKISRVEAEDVGVYYCMQALQGPITFGQGTKVEIKR
no binding | < 2 fold | 2 to 10 fold | – | – | – | Polypeptide No. 12 (scFv, V domains shown, scFv) VH: EVQLLESGGGLVQPGGSLRLSCAASGFTFSSHWMSWVRQAPGKGLEWVSAISGSGGSTYYADSVKGRFTISRDNSKNTLYLQMNSLRAEDTAVYYCARDDNSGSQADWGQGTLVTVSS VL: DIQMTQSPSSLSASVGDRVTITCQASQDIDNYLNWYQQKPGKAPKLLIYDASNLETGVPSRFSGSGSGTDFTLTISSLQPEDFATYYCQQSYSTPLTFGGGTKLEIKR
no binding | < 2 fold | 2 to 10 fold | – | – | – | Polypeptide No. 21 (scFv, V domains shown, scFv) VH: not shown VL: DIQMTQSPSSLSASVGDRVTITCQASQDISNNLNWYQQKPGKAPKLLIYAASGLQSGVPSRFSGSGSGTDFTLTISSLQPEDFATYYCQQANSFPLTFGGGTKVEIKR
no binding | < 2 fold | 2 to 10 fold | – | – | – | Polypeptide No. 17 (scFv, V domains shown, scFv) VH: not shown VL: DIQMTQSPSSLSASVGDRVTITCRASQGISNNLNWYQQKPGKAPKLLIYESSTLETGVPSRFSGSGSGTDFTLTISSLQPEDFATYYCQQSYSAPLTFGGGTKVEIKR
no binding | < 2 fold | 2 to 10 fold | – | – | – | Polypeptide No. 23 (scFv, V domains shown, scFv) VH: QVQLVQSGAEVKKPGASVKVSCKASGYPFTAHYIHWVRQAPGQGLEWMGWINPNSGGTNYAQKFQGRVTMTRDTSTSTVYMELSSLRSEDTAVYYCARDVEMATIGAYWYFDLWGRGTLVTVSS VL: DIQMTQSPSSLSASVGDRVTITCRASQGINNWLAWYQQKPGKAPKLLIYDASNLETGVPSRFSGSGSGTDFTLTISSLQPEDFATYYCQQANSFPPTFGQGTKLEIKR
